Assay results as given in the supplement of paper PMC7125110.
± gives the standard error. Variants at the floor of the assay were thinned out.

B1: glmS ribozyme (parent)
chain: AUAAAAGCGCCAGAACUACAGAAAUGUAGUUGACGAGGAGGAGGUUUAUCGAAUUUUCGGCGGAUGCCUCCAAA

Variants of: B1
Assay: self-cleavage kobs at 10000 uM GlcN6P; higher = faster cleavage; RNA array
Settings: with glucosamine-6-phosphate
Summary of the method: (§1)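 kcat and KM were obtained from weighted Michaelis–Menten fits across concentrations of kobs values. Those came from one- or two-exponential decay fits to per-tile medians normalised to baseline and to non-cleaving reference variants. The variants were barcoded ribozymes transcribed in situ by E. coli RNA polymerase on sequenced MiSeq chips and tracked through a hybridised Cy3 probe at 37 °C, with 40 μM to 10 mM glucosamine-6-phosphate in HEPES/KCl/Mg(OAc)2 buffer flowed in.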

Row | Variant | self-cleavage kobs at 10000 uM GlcN6P
1 | A14G U31C C58A C68U C70U | 3.74e-05 ± 1.6e-05 s⁻¹
2 | C61A U69C | < 1e-05 s⁻¹
3 | C11U G32U U45G C61G | < 1e-05 s⁻¹
4 | U46C G62A G66A C71A | < 1e-05 s⁻¹
5 | A12C A14G U47A A53G C58U | 3.29e-05 ± 1.6e-05 s⁻¹
6 | A12G G43U G60C | < 1e-05 s⁻¹
7 | G7C A48G C50A | < 1e-05 s⁻¹
8 | A15G A39G U55A C58U | 2.43e-05 ± 1.1e-05 s⁻¹
9 | G32A U56A C67G | 0.000139 ± 2e-05 s⁻¹
10 | A12C U46C G51U U54A | < 1e-05 s⁻¹
11 | A15G C50G C68A | 7.87e-05 ± 1.6e-05 s⁻¹
12 | G38U A52U C58U | < 1e-05 s⁻¹
13 | G13C U47G C70U | 5.23e-05 ± 1.4e-05 s⁻¹
14 | C10A C50A C67U | 4.36e-05 ± 1.7e-05 s⁻¹
15 | C16A G29A U46C | 0.00011 ± 1.8e-05 s⁻¹
16 | U47G A48U C68U | 9.1e-05 ± 1.8e-05 s⁻¹
17 | G41C C50A G62U | < 1e-05 s⁻¹
18 | U45C U54G C70A | 5.88e-05 ± 1.3e-05 s⁻¹
19 | C16G G35C C58U | < 1e-05 s⁻¹
20 | A6C G44A C58U | < 1e-05 s⁻¹
21 | C34G G59C C61A A64G | < 1e-05 s⁻¹
22 | U49A A53C G63U C71G | < 1e-05 s⁻¹
23 | G13A A42U U49G C58U | < 1e-05 s⁻¹
24 | A12C U56G C70G | 5.35e-05 ± 1.3e-05 s⁻¹
25 | A36U C68G C71U | 5.72e-05 ± 2.3e-05 s⁻¹
26 | A14C G60U C70A | < 1e-05 s⁻¹
27 | A12G G13C G35A | < 1e-05 s⁻¹

Row | Variant | self-cleavage kobs at 10000 uM GlcN6P
28 | A6U U54C U55G | 0.000129 ± 3.3e-05 s⁻¹
29 | A14U A53U C68U | 0.00114 ± 0.00036 s⁻¹
30 | G32C G66A | 7.35e-05 ± 1.4e-05 s⁻¹
31 | U65C U69C | 0.000106 ± 2.2e-05 s⁻¹
32 | G29A U30C G60A | < 1e-05 s⁻¹
33 | U47A C50G G63U U69G | 5.11e-05 ± 1.5e-05 s⁻¹
34 | U30G A39U C70A | 7.17e-05 ± 1.8e-05 s⁻¹
35 | C8U G37C C50G A53U C67A | 0.000441 ± 0.00011 s⁻¹
36 | C34A A36C G60A | < 1e-05 s⁻¹
37 | C50U U55C | 4.47e-05 ± 1.1e-05 s⁻¹
38 | C10G G29A U65C | < 1e-05 s⁻¹
39 | A15G U54C C71G | 0.000924 ± 0.00024 s⁻¹
40 | C11G A15U C50A G51U C70A | 4.33e-05 ± 1.2e-05 s⁻¹
41 | A12G C16G C34G U55G | < 1e-05 s⁻¹
42 | G9A U30A C70A | < 1e-05 s⁻¹
43 | G9U U31G C34U G59U | < 1e-05 s⁻¹
44 | A14C A39U A53G | 0.00135 ± 0.0004 s⁻¹
45 | G29A G40U C68G | < 1e-05 s⁻¹
46 | C8A C58U U69G | 0.0005 ± 8.7e-05 s⁻¹
47 | A15U G44U A64U | < 1e-05 s⁻¹
48 | C10G C61A G66U | < 1e-05 s⁻¹
49 | A6U U45G C67A | 4.59e-05 ± 1.8e-05 s⁻¹
50 | G35U A53U U56A | < 1e-05 s⁻¹
51 | G44U U54C | 0.000226 ± 5e-05 s⁻¹
52 | A6G C11A C34U C58U C68G | 0.000295 ± 0.0001 s⁻¹
53 | C8A A15U G35C | < 1e-05 s⁻¹
54 | G63A A64U C68U | < 1e-05 s⁻¹

Row | Variant | self-cleavage kobs at 10000 uM GlcN6P
55 | U31C G66C | 8.11e-05 ± 1.3e-05 s⁻¹
56 | G13U C34U G37U A53U | < 1e-05 s⁻¹
57 | A15G G66C C68U | 0.000127 ± 2.6e-05 s⁻¹
58 | G43C G51U G62U | < 1e-05 s⁻¹
59 | A6C G32A G43U | < 1e-05 s⁻¹
60 | U30C G51A C67G | < 1e-05 s⁻¹
61 | G40C G41U G62A | < 1e-05 s⁻¹
62 | G29A A52G C67G | 5.89e-05 ± 1.1e-05 s⁻¹
63 | C11G G40C U54A C70U C71G | < 1e-05 s⁻¹
64 | G9U U31G U45A C61A C68A | < 1e-05 s⁻¹
65 | G9U G59C G63C | < 1e-05 s⁻¹
66 | A52U G66U C67A | 8.48e-05 ± 2.8e-05 s⁻¹
67 | A6G A12U C16U | 5.43e-05 ± 2.1e-05 s⁻¹
68 | C16A G29A C50A G59A C71U | < 1e-05 s⁻¹
69 | U30G G41U G43A A48C C71U | < 1e-05 s⁻¹
70 | G9U U31G U54A | < 1e-05 s⁻¹
71 | G44U U57G G66A C70G | < 1e-05 s⁻¹
72 | G7U A15U C70G | 3.63e-05 ± 1.7e-05 s⁻¹
73 | G29C G44A U47C U49G U57G G60C C68U C70G | < 1e-05 s⁻¹
74 | A15C U30C A39G | 0.000286 ± 6.4e-05 s⁻¹
75 | A12G U45A U55A | 0.00202 ± 0.00039 s⁻¹
76 | A12C G51A G59U G66U | < 1e-05 s⁻¹
77 | A42U U65G U69G | 0.00259 ± 0.00036 s⁻¹
78 | C11U C50A G66A | < 1e-05 s⁻¹
79 | A33C U45C U65C | < 1e-05 s⁻¹
80 | C34A U46A G51A | < 1e-05 s⁻¹

Variants of: B1
Assay: self-cleavage kobs at 2500 uM GlcN6P; higher = faster cleavage; RNA array
Settings: with glucosamine-6-phosphate
Summary of the method: as §1

Row | Variant | self-cleavage kobs at 2500 uM GlcN6P
81 | C10A C50A C67U | 0.000776 ± 0.00021 s⁻¹
82 | G32A A39C C50U | < 1e-05 s⁻¹
83 | A42G G51C G62A | < 1e-05 s⁻¹
